Assay results from patent US20130244255A1 (published 2013).

Key:
[1] = molecular target: T1, GPNMB (CG56972) as expressed by human cell lines (human, UniProt Q14956 23-492); assay: FACS on HEMNLP cells
T1 construct: Endogenous or transfected full-length protein on cells (FACS, killing assays) or in cell lysates (immunoprecipitation, blot); also called native GPNMB protein
T1 sequence: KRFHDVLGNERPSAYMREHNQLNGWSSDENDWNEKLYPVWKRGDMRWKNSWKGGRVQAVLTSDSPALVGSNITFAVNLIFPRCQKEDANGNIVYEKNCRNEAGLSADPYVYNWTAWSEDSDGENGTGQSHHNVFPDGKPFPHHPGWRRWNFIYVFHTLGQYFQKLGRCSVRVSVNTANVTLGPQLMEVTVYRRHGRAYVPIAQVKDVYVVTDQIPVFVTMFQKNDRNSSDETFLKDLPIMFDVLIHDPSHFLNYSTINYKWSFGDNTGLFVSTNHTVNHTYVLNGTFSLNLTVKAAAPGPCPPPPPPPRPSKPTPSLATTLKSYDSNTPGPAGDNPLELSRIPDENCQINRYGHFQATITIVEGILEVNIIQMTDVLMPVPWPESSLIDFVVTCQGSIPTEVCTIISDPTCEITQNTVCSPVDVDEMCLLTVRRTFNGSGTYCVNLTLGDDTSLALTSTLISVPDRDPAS

[2] = molecular target: T1, GPNMB (CG56972) as expressed by human …; assay: FACS on WM115 cells
[3] = molecular target: T1, GPNMB (CG56972) as expressed by human …; assay: FACS on SF-268 cells, CR011 10 ug/mL
Experimental: (§1) Quantitative analysis of CG56972 expression on the surface of cell lines was determined by flow cytometry (FACS). […] Cells were fixed in 1% paraformaldehyde/PBS and examined on a Becton Dickinson FACSCalibur flow cytometer. Data analysis was performed with Becton Dickinson Cell Quest software version 3.3 and the geometric mean fluorescence intensity ratio (GMR) was determined for each cell type.
(§2) Geometric Mean ratios (GMR) were determined by flow cytometric analysis.

[4] = molecular target: T1, GPNMB (CG56972) as expressed by human …; assay: FACS on XF-498, U-118-MG, SNB-78 and SF-539 cells
Experimental: as §1

[5] = molecular target: T1, GPNMB (CG56972) as expressed by human …; assay: FACS on G361 cells
[6] = molecular target: T1, GPNMB (CG56972) as expressed by human …; assay: FACS on SU-DHL-4 cells, antibody 1 ug/mL
[7] = molecular target: T1, GPNMB (CG56972) as expressed by human …; assay: FACS on D450-MG cells, CR011 10 ug/mL
Experimental: as §1

[8] = molecular target: T1, GPNMB (CG56972) as expressed by human …; assay: FACS on U-118-MG cells, CR011 10 ug/mL
Experimental: as §1, §2

[9] = molecular target: T1, GPNMB (CG56972) as expressed by human …; assay: FACS on MV4-11 cells, antibody 1 ug/mL
[10] = molecular target: T1, GPNMB (CG56972) as expressed by human …; assay: FACS on UACC-62 cells, antibody 1 ug/mL
Experimental: The specificity of anti-GPNMB antibodies to cell membrane-bound GPNMB protein expressed by melanoma cancer cell line, UACC-62 was analyzed by FACS analysis. […] Cells were washed twice with PBS (Ca and Mg free), incubated with Versene at 37° C. until cells detached, counted and aliquoted at 1 million cells per assay tube. Cells were then washed twice and resuspended in ice-cold FACS buffer (0.01 M HEPES, 0.15M NaCl, 0.1% NaN₃ and 4% FBS). Primary antibody at 1 μg/mL was added to the cells. Cells were incubated on ice for 30 min, washed 2-3 times and resuspended in 1 mL of ice-cold FACS buffer. R-PE-conjugated goat anti-human antibody (Jackson ImmunoResearch Laboratory) at 1:100 dilution was added and cells were incubated on ice for 30 min. After washing 3 times with 1 mL of ice-cold FACS buffer, cells were fixed with 0.5-1 mL of 1% formaldehyde in PBS and analyzed by flow cytometry.

[11] = molecular target: T1, GPNMB (CG56972) as expressed by human …; assay: FACS on SK-Mel 24 cells
[12] = molecular target: T1, GPNMB (CG56972) as expressed by human …; assay: FACS on ML-2 cells, antibody 1 ug/mL
Experimental: (§3) Lymphoma or leukemia derived cells were washed twice with ice-cold FACS buffer and resuspended at 1 million cells per assay tube. […] Cells were then washed 2-3 times and resuspended in 1 mL of ice-cold FACS buffer. R-PE-conjugated goat anti-human antibody at 1:100 dilution was added and cells were incubated on ice for 30 min. Cells were washed 3 times with 1 mL of ice-cold FACS buffer, fixed with 0.5-1 mL of 1% formaldehyde in PBS and analyzed by Flow Cytometry.

[13] = molecular target: T1, GPNMB (CG56972) as expressed by human …; assay: FACS on HL-60 cells, antibody 1 ug/mL
[14] = molecular target: T1, GPNMB (CG56972) as expressed by human …; assay: FACS on HH cells, antibody 1 ug/mL
[15] = molecular target: T1, GPNMB (CG56972) as expressed by human …; assay: FACS on SNB-78 cells, CR011 10 ug/mL
Experimental: as §1

[16] = molecular target: T1, GPNMB (CG56972) as expressed by human …; assay: FACS on U87MG cells, CR011 10 ug/mL
Experimental: as §1

[17] = molecular target: T1, GPNMB (CG56972) as expressed by human …; assay: FACS on UACC-62 cells
[18] = molecular target: T1, GPNMB (CG56972) as expressed by human …; assay: FACS on AML-193 cells, antibody 1 ug/mL
[19] = molecular target: T1, GPNMB (CG56972) as expressed by human …; assay: FACS on MEWO cells
[20] = molecular target: T1, GPNMB (CG56972) as expressed by human …; assay: FACS on KG1a cells, antibody 1 ug/mL
Experimental: as §3

[21] = molecular target: T1, GPNMB (CG56972) as expressed by human …; assay: FACS on CCRF-CEM cells, antibody 1 ug/mL
Experimental: as §3

[22] = molecular target: T1, GPNMB (CG56972) as expressed by human …; assay: FACS on M14 cells
[23] = molecular target: T1, GPNMB (CG56972) as expressed by human …; assay: FACS on SR cells, antibody 1 ug/mL
Experimental: as §3

[24] = molecular target: T1, GPNMB (CG56972) as expressed by human …; assay: FACS on U937 cells, antibody 1 ug/mL
Experimental: as §3

B1: CR011 mAb 1.15.1 (IgG2) (antibody)
heavy: QVQLQESGPGLVKPSQTLSLTCTVSGGSISSFNYYWSWIRHHPGKGLEWIGYIYYSGSTYSNPSLKSRVTISVDTSKNQFSLTLSSVTAADTAVYYCARGYNWNYFDYWGQGTLVTVSSASTKGPSVFPLAPCSRSTSESTAALGCLVKDYFPEPVTVSWNSGALTSGVHTFPAVLQSSGLYSLSSVVTVPSSNFGTQTYTCNVDHKPSNTKVDKTVERKCCVECPPCPAPPVAGPSVFLFPPKPKDTLMISRTPEVTCVVVDVSHEDPEVQFNWYVDGVEVHNAKTKPREEQFNSTFRVVSVLTVVHQDWLNGKEYKCKVSNKGLPAPIEKTISKTKGQPREPQVYTLPPSREEMTKNQVSLTCLVKGFYPSDIAVEWESNGQPENNYKTTPPMLDSDGSFFLYSKLTVDKSRWQQGNVFSCSVMHEALHNHYTQKSLSLSPGK
VL: not shown
notes: also called CR011.1.15.1; CR011 IgG2
[1]
  Geo Mean Ratio (relative to isotype): 10.2 ratio
[2]
  Geo Mean Ratio (relative to isotype): 1.3 ratio
[3]
  CR011 Fold Shift (GMR): 1.5 fold
[4]
  surface staining, fold above isotype control mAb background: ≥ 1.5 fold
[5]
  Geo Mean Ratio (relative to isotype): 8 ratio
[6]
  Geo Mean Ratio: 1.8 ratio
[7]
  CR011 Fold Shift (GMR): 1.6 fold
[8]
  CR011 Fold Shift (GMR): 7.4 fold
[9]
  Geo Mean Ratio: 1.9 ratio
[10]
  Geo Mean Ratio (relative to pK16): 7.89 ratio
[11]
  Geo Mean Ratio (relative to isotype): 1.9 ratio
[12]
  Geo Mean Ratio: 2.1 ratio
[13]
  Geo Mean Ratio: 2.3 ratio
[14]
  Geo Mean Ratio: 1 ratio
[15]
  CR011 Fold Shift (GMR): 8.6 fold
[16]
  CR011 Fold Shift (GMR): 1.5 fold
[17]
  Geo Mean Ratio (relative to isotype): 5.5 ratio
[18]
  Geo Mean Ratio: 1.8 ratio
[19]
  Geo Mean Ratio (relative to isotype): 14.1 ratio
[20]
  Geo Mean Ratio: 2.7 ratio
[21]
  Geo Mean Ratio: 10.9 ratio
[22]
  Geo Mean Ratio (relative to isotype): 16.1 ratio
[23]
  Geo Mean Ratio: 7.1 ratio
[24]
  Geo Mean Ratio: 17.3 ratio
